Laboratory results published in paper doi:10.1101/2021.02.22.432209.

Molecular target: GST-PreScission-p62 FIR 4P (human) (UniProt Q13501)
Assay: SPR

LC3B (1-125), His8-TEV-LC3B (from UniProt Q9GZQ8 1-120) (natural protein)
KD estimated from the kinetics of the sensorgrams: 80 nM
half life: 20 min
